From patent US20260124223A1, “CANCER IMMUNOTHERAPIES” (Northwestern University, priority 2022, published 2026) come the findings set out here.

pKd: −log10 of the molar value.

For assay [1], the target named is mouse FcγRIV protein (his-tagged) (mouse). The experiment in a line: ratio of SPR binding to mouse FcγRIV against inhibitory mouse FcγRIIB.
For assay [2] the target is unchanged. The experiment in a line: SPR (Biacore T200), his-tagged receptor captured on anti-His CM5 chip, antibody injected.
The target of assay [3] is mouse FcγRIIB protein (his-tagged) (mouse) (UniProt P08101). Described as above.
The target in assay [4] is human FcγRIIIA F158 protein (his-tagged) (human) (UniProt P08637). Described as above.
The target of assay [5] is human FcγRIIB protein (his-tagged) (human) (UniProt P31994). Described as above.
Assay [6] addresses human FcγRIIIA V158 protein (his-tagged) (human) (UniProt P08637). The assay is described as above.

mouse FcγRIV protein (his-tagged) (mouse), sequence (A0A0B4 entry or part of it limits assumed): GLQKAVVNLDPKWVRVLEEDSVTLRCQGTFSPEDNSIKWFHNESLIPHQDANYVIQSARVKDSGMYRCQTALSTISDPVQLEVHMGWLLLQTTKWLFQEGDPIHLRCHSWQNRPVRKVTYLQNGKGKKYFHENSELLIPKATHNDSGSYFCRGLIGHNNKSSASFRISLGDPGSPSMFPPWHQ
mouse FcγRIIB protein (his-tagged) (mouse), sequence (P08101 30-210 limits assumed): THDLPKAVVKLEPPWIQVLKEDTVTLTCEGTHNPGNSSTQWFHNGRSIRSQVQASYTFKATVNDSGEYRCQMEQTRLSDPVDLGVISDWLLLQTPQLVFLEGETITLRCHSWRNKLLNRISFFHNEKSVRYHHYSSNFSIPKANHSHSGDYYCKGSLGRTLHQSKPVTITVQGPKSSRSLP
human FcγRIIB protein (his-tagged) (human), sequence (P31994 43-217 limits assumed): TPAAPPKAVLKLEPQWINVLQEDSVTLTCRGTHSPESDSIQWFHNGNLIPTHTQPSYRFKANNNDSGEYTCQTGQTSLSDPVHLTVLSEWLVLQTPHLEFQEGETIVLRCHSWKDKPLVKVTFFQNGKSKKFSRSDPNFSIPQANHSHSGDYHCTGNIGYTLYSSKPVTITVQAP
human FcγRIIIA F158 protein (his-tagged) (human), sequence (P08637 17-208 limits assumed): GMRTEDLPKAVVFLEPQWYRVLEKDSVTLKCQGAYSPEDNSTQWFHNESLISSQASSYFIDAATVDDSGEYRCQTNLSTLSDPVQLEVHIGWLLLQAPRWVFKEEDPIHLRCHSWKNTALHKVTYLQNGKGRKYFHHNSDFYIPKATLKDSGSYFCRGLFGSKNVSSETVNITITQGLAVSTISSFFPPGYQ
human FcγRIIIA V158 protein (his-tagged) (human), sequence (P08637 17-208 F176V limits assumed): as the sequence (P08637 17-208 limits assumed) above, with F160V counted along it

For “anti-mouse CTLA-4 antibody, clone 9D9, mouse IgG2b (unmodified)”, the A/I ratio (IV/IIB) in assay [1] is 95. Also, the results for the pKd in assay [2] and in assay [3] were 7.21 and 5.24, respectively.
In the same order, the values of “Fc-enhanced mouse reactive anti-CTLA4 antibody (clone 9D9, mIgG2b.DLE) (from UniProt P01867 1-335)” are 4180, 8.77 and 5.15.
On to “Fc-enhanced anti-human CTLA-4 antibody (hIgG1.DLE) (from UniProt P01857 1-330)”, for which the pKd was 8.55 in assay [4], 5.49 in assay [5] and 8.56 in assay [6].
